Results reported in patent US20110015124A1 (TEMPLE UNIVERSITY OF THE COMMOMWEALTH SYSTEM OF HIGHER …, published 2011).
Starred links: 1 amine or outer side, 2 acyl side, 3 side chain; linkers in the order of their positions; H or OH if unused. Non-standard residues stand in square brackets, D forms with d. Primed or numbered codes have the meaning given here. No end group written: not given here. Tyr(Me)″ = methylated tyrosine, COc1ccc(C[C@H](N[*:1])C(=O)[*:2])cc1; Tyr(3,5-I2) = N[C@@H](Cc1cc(I)c(O)c(I)c1)C(=O)O; dGla = N[C@H](CC(C(=O)O)C(=O)O)C(=O)O; Dap = NC[C@H](N)C(=O)O; βAla = NCCC(=O)O

B1: F2 peptide (peptide)
peptide: G[Tyr(3,5-I2)]ST[dGla]VV[dA]LSRL-NH2
modifications: N-terminus assumed
SMILES: CC(C)C[C@H](NC(=O)[C@H](CCCNC(=N)N)NC(=O)[C@H](CO)NC(=O)[C@H](CC(C)C)NC(=O)[C@@H](C)NC(=O)[C@@H](NC(=O)[C@@H](NC(=O)[C@@H](CC(C(=O)O)C(=O)O)NC(=O)[C@@H](NC(=O)[C@H](CO)NC(=O)[C@H](Cc1cc(I)c(O)c(I)c1)NC(=O)CN)[C@@H](C)O)C(C)C)C(C)C)C(N)=O
B2: A11 peptide (peptide)
peptide: [Tyr(Me)″]STEVV[βAla]LSRL-NH2
modifications: N-terminus assumed
SMILES: COc1ccc(C[C@H](N)C(=O)N[C@@H](CO)C(=O)N[C@H](C(=O)N[C@@H](CCC(=O)O)C(=O)N[C@H](C(=O)N[C@H](C(=O)NCCC(=O)N[C@@H](CC(C)C)C(=O)N[C@@H](CO)C(=O)N[C@@H](CCCNC(=N)N)C(=O)N[C@@H](CC(C)C)C(N)=O)C(C)C)C(C)C)[C@@H](C)O)cc1
B3: A4 peptide (peptide)
peptide: G[Tyr(3,5-I2)]STEVV[βAla]LSRL-NH2
modifications: N-terminus assumed
SMILES: CC(C)C[C@H](NC(=O)[C@H](CCCNC(=N)N)NC(=O)[C@H](CO)NC(=O)[C@H](CC(C)C)NC(=O)CCNC(=O)[C@@H](NC(=O)[C@@H](NC(=O)[C@H](CCC(=O)O)NC(=O)[C@@H](NC(=O)[C@H](CO)NC(=O)[C@H](Cc1cc(I)c(O)c(I)c1)NC(=O)CN)[C@@H](C)O)C(C)C)C(C)C)C(N)=O
B4: pyrrhocoricin (peptide, UniProt P37362 1-20, looked up)
peptide: VDKGSYLPRPTPPRPIYNRN
notes: Negative control peptide; also called negative control antibacterial peptide pyrrhocoricin
B5: D12 peptide (peptide)
peptide: [Tyr(Me)″]ST[dGla]VV[dA]LSRL-NH2
modifications: N-terminus assumed
SMILES: COc1ccc(C[C@H](N)C(=O)N[C@@H](CO)C(=O)N[C@H](C(=O)N[C@H](CC(C(=O)O)C(=O)O)C(=O)N[C@H](C(=O)N[C@H](C(=O)N[C@H](C)C(=O)N[C@@H](CC(C)C)C(=O)N[C@@H](CO)C(=O)N[C@@H](CCCNC(=N)N)C(=O)N[C@@H](CC(C)C)C(N)=O)C(C)C)C(C)C)[C@@H](C)O)cc1

Legend:
[1] = biological target: leptin receptor (ObR) naturally expressed on MCF-7 and DU-45 cells (human) (UniProt P48357); test: cell-based or functional assay
[2] = biological target: T1, leptin receptor (ObR) naturally expressed on MCF-7 and DU-45 cells (human, UniProt P48357 22-1165); test: cell-based or functional assay
T1 sequence (looked up): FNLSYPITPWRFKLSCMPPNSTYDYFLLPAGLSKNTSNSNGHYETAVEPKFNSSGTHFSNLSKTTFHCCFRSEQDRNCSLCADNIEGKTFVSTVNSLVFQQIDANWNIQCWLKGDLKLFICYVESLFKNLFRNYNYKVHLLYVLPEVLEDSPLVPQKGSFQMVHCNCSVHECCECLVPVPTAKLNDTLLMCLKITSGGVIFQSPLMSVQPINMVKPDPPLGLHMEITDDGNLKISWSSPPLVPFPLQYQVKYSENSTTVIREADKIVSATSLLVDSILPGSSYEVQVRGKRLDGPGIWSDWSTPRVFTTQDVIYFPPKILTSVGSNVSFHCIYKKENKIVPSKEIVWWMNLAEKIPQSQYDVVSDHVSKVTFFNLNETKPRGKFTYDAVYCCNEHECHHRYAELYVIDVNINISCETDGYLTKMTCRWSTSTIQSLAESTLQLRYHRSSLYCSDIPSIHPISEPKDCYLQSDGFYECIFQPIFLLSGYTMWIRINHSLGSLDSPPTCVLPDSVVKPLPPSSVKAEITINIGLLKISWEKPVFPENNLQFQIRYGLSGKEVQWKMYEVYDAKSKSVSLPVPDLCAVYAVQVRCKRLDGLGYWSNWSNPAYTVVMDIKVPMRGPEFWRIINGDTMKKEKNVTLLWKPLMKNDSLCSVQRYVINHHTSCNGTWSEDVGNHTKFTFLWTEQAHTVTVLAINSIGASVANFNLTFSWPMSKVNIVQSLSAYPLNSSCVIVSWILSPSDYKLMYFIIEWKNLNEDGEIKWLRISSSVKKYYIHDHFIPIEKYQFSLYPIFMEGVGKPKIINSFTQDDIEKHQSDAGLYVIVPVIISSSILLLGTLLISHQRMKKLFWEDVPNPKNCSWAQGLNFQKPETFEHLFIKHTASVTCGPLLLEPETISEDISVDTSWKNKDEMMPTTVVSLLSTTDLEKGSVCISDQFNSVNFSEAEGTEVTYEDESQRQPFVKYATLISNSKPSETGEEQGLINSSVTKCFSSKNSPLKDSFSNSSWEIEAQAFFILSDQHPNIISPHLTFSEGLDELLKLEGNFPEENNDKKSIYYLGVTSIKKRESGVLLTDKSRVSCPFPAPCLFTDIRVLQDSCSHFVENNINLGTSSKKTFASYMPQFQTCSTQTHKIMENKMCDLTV

[3] = biological target: T2, human IgG Fc-conjugated ObR extracellular domain (R&D Systems) (human, UniProt P48357 22-839); test: ELISA-type solid-phase binding assay, peptide on plate, ObR-Fc in solution
T2 construct: extracellular domain; it was detected with an antibody specific for the N-terminus of human ObR; also called ObR extracellular fragment-human Fc chimera; extracellular domain of ObR; not shown: human IgG Fc
T2 sequence (looked up): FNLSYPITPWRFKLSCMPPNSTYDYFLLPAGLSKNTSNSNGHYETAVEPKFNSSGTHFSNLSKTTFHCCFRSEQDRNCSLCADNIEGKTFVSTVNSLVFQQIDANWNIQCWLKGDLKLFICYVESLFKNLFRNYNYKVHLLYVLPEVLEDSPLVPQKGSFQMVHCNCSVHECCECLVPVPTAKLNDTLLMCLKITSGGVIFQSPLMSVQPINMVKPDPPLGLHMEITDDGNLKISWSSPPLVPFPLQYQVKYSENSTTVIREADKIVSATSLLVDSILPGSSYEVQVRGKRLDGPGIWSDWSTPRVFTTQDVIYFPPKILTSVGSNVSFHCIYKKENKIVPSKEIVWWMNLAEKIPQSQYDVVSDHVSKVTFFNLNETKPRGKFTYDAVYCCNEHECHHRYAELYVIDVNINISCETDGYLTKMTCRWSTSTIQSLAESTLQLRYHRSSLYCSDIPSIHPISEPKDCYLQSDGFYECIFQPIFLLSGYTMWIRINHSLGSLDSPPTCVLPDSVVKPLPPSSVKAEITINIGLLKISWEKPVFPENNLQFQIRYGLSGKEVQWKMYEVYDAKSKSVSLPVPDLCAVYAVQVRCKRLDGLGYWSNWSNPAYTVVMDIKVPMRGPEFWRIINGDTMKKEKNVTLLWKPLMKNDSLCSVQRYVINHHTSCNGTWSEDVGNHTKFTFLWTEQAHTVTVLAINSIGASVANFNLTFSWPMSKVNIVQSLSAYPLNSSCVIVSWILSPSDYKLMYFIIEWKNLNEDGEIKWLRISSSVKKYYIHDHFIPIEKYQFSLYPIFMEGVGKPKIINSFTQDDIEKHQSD
Protocol: For dot-blot and ELISA assays, the leptin fragments were dissolved in electroblot transfer buffer (25 mM Tris and […] buffer containing 20% methanol) and were applied to either a nitrocellulose membrane or dried upon ELISA plates (Otvos, L., Jr., and Szendrei, G. I. (1996) Enzyme-linked immunosorbent assay of peptides. In: Neuropeptide Protocols (G. B. Irvine and C. H. Williams, eds.). Humana Press, Totowa, N.J., pp. 269-275). The solid surfaces were blocked with 5% BSA in a PBS-0.5% Tween 20 buffer (PBST) for 3 hours at room temperature and were subsequently incubated with 10 μg/mL solution of human IgG Fc-conjugated ObR extracellular domain (R&D Systems) dissolved in Tris-buffered saline-0.1% Tween 20 buffer (TBST) containing 1% bovine serum albumin (BSA) for 1 hour. A monoclonal goat antibody (Santa Cruz Biotechnology), specific for the N-terminus of human ObR, was added to the assay mixture, followed by addition of a horseradish peroxidase(HRP)-conjugated anti-goat IgG donkey antibody for the dot-blot assay, and HRP-conjugated anti-goat Fc mouse antibody for ELISA assay (used at a 1:15,000 dilution in PBST and 1% BSA). Between reagents, the solid surfaces were washed extensively with PBST. After washing with PBST, the membrane was treated with a chemiluminescence luminol oxidizer (NEN) for 1 min. […] Optical absorbance values were read at 490 nm using a microplate reader. […]

[4] = biological target: T1, leptin receptor (ObR) naturally …; test: cell-based or functional assay; remark: listed apart in the source

Molecule | Relative stimulation (%) of MCF-7 cells, with 10 nM leptin [2] [%] | other results
human leptin (R&D Systems) (from UniProt P41159 22-167) |  | MCF-7 cell growth (cell count, 5 days) [1]: 40%
B1 | -15 | 
B2 | -3 | 
B3 | -10 | 
B4 |  | binding result [3]: no binding
[Tyr(3,5-I2)]S(β‑D‑glucose)TEVVALSRL[Dap](Ac)-NH2 [E1Free glycopeptide] |  | EC50 estimated from ERK1/2 stimulation in MCF-7 cells [4]: 100 to 150 nM
B5 | -43 | 
